Assay [1] concerns the target aIgE-Fab (Fab fragment of Omalizumab) (Humanized antibody/IgG1κ). The assay can be described thus: column breakthrough, 1 mg/mL aIgE-Fab, 0.33 mL/min.
The target is the same in assay [2]. Kind of assay: ratio of 55% DBC for aIgE-Fab after against before 5 cycles of 50 mM NaOH.
Assay [3] shares this target. The assay can be described thus: column breakthrough, 1 mg/mL aIgE-Fab, after 5 cycles of 50 mM NaOH for 30 minutes.
For assay [4], the target named is aTNFa-Fab (Fab fragment of Infliximab) (Chimeric antibody/IgG1κ). The assay can be described thus: column breakthrough, 1 mg/mL aTNFa-Fab, quasi-static binding capacity at 55% breakthrough.

The source of these data is US20190119362A1.

In the case of “LB5t-Wild.4d (tetramer of B5 domain of PpL 312), immobilized on agarose carrier”, the 55% DBC before the alkaline washing in assay [1] worked out at 23.6 mg/mL. Besides, the binding capability maintained after alkaline treatment in assay [2] is 92.8%. Further, the 55% DBC after the alkaline washing in assay [3] is 21.9 mg/mL.

The substance “commercially available Protein L carrier (HiTrap Protein L, GE Healthcare Bioscience)” gave a 55% DBC in assay [4] of 4.8 mg/mL-gel.
